According to US6808893 (Johns Hopkins, dated 2004):

Legend:
[1] = target: T1, GLAST glutamate transporter (rat, UniProt P24942 1-543); test: co-immunoprecipitation from rat brain extract, Western blotting
T1 construct: whole, on cells; Native protein in solubilized rat brain
T1 sequence (looked up): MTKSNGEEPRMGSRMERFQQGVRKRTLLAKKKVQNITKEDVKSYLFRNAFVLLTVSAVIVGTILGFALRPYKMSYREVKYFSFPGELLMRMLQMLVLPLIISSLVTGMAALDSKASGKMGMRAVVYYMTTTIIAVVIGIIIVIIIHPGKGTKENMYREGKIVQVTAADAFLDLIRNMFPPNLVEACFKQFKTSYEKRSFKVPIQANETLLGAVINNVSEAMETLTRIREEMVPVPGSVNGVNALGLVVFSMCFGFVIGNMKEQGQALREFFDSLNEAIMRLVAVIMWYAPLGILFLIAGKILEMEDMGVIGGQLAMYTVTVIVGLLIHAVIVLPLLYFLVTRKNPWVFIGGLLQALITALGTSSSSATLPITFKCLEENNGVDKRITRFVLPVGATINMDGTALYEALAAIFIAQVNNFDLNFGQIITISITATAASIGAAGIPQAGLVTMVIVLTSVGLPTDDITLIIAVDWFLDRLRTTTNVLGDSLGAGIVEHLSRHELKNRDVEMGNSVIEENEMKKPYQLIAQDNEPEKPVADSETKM

[2] = target: T2, GLT-1 glutamate transporter (rat, UniProt P31596 1-573); test: as above
T2 construct: whole, on cells; Native protein in solubilized rat brain

[3] = target: T3, EAAT4, full-length glutamate transporter (rat, UniProt O35921 1-561); test: as above
T3 construct: whole, on cells; tested from detergent lysates; also called rEAAT4; rat EAAT4
T3 sequence (looked up): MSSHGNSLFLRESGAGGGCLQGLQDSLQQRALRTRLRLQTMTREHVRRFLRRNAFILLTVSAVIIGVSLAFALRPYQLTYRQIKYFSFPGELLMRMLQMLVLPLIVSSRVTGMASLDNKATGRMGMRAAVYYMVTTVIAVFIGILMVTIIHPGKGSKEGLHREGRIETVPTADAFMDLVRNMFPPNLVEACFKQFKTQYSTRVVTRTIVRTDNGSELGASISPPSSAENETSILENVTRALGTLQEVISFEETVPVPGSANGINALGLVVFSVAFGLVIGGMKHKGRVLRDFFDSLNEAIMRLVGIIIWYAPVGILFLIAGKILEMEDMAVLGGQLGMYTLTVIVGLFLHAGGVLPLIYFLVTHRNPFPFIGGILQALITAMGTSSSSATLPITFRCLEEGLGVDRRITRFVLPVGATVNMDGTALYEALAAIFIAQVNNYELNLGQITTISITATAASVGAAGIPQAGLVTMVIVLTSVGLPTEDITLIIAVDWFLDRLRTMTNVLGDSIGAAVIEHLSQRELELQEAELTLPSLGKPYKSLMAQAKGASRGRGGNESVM

[4] = target: the molecule itself; test: immunoblot of tissue homogenates and purified protein
[5] = target: T4, truncated EAAC1 lacking the interacting carboxy-terminal domain (lacking the last 93 amino acids) (UniProt P51907 1-430); test: co-immunoprecipitation from transfected HEK293 cells
T4 construct: domain: EAAC1 lacking the last 93 amino acids
T4 sequence (looked up): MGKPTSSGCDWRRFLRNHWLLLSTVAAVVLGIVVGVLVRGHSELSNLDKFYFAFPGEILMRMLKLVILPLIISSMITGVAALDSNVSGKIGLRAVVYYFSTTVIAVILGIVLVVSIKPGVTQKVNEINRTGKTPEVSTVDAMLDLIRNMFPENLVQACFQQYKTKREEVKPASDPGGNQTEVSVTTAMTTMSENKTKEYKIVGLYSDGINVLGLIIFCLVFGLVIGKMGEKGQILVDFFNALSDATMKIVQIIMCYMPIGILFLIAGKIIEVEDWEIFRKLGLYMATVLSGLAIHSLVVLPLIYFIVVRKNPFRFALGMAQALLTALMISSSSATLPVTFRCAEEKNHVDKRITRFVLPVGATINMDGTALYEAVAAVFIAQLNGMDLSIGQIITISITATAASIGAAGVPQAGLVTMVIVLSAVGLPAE
Experimental: (§1) Immunoprecipitation experiments were performed to test if EAAC1 and GTRAP3-18 interact in vivo. This was first examined in transfected HEK293 cells using amino-terminus c-myc tagged GTRAP3-18. EAAC1 is co-immunoprecipitated with c-myc-GTRAP3-18 in the cell extract prepared from co-expression cells but not from EAAC1 or c-myc-GTRAP3-18 single expression cells. […] This interaction was specific, since EAAT4, another neuronal glutamate transporter subtype, is not immunoprecipitated with c-myc-GTRAP3-18. Identical results are obtained using COS-7 and C6 glioma cell lines.

[6] = target: T3, EAAT4, full-length glutamate transporter; test: as above
Experimental: as §1

T2 sequence (P31596 whole entry): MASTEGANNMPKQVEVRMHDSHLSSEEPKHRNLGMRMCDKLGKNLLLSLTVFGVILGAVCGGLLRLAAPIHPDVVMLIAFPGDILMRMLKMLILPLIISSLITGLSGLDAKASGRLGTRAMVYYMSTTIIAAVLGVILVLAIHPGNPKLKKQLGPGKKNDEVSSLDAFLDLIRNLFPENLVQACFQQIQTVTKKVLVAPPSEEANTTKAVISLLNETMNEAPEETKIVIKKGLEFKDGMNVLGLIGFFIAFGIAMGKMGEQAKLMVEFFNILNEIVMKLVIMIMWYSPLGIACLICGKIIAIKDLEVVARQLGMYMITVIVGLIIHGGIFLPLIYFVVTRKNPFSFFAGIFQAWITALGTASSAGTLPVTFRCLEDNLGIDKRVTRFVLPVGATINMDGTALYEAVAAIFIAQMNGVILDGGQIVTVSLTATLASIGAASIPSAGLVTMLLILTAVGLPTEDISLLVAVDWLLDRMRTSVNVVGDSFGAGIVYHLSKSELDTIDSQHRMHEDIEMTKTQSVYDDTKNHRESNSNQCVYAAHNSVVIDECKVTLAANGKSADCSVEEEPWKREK

B1: GTRAP3-18 (glutamate transporter EAAC1 associated protein), full-length (other)
chain: MDVNLAPLRAWDDFFPGSDRFARPDFRDISKWNNRVVSNLLYYQTNYLVVAAMMISVVGFLSPFNMILGGIIVVLVFTGFVWAAHNKDILRRMKKQYPTAFVMVVMLASYFLISMFGGVMVFVFGITFPLLLMFIHASLRLRNLKNKLENKMEGIGLKKTPMGIILDALEQQEDSINKFADYISKARE
notes: Used for native GTRAP3-18 of rat brain and tissue homogenates, for 'purified GTRAP3-18 protein' and for GTRAP3-18 expressed where no tag is stated; also called rat JWA protein homologue
[1]
  binding result: no binding
[2]
  binding result: no binding
[3]
  binding result: no binding
[4]
  binding result: binds

B2: amino-terminus c-myc tagged GTRAP3-18 (other)
chain: MDVNLAPLRAWDDFFPGSDRFARPDFRDISKWNNRVVSNLLYYQTNYLVVAAMMISVVGFLSPFNMILGGIIVVLVFTGFVWAAHNKDILRRMKKQYPTAFVMVVMLASYFLISMFGGVMVFVFGITFPLLLMFIHASLRLRNLKNKLENKMEGIGLKKTPMGIILDALEQQEDSINKFADYISKARE
notes: Expressed in HEK293 (also COS-7 and C6 glioma) cells; also called c-myc-GTRAP3-18; not shown: c-myc tag at the amino-terminus
[5]
  binding result: no binding
[6]
  binding result: no binding
